Assay results published in the nanobody polyreactivity screen of Harvey et al. (2022).

assay: yeast display, Sf9 membrane polyspecificity reagent, FACS + sequencing; frameworks hold sequencing errors
Outline: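 A nanobody's polyreactivity label depends on the gate it was sorted from. Yeast display cells were stained with 10% biotinylated, detergent-solubilized Sf9 membrane reagent for 1 hour at 4 °C, enriched on streptavidin microbeads and sorted by FACS. The low and high (top ~1%) gates were set on anti-HA fluorescence for expression and streptavidin fluorescence for reagent binding.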

Row | Sequence | polyreactivity (PSR sort gate)
1 | QVQLVESGGGLVQAGGSLRLICAASGSTFNGNDRGWYRQAPGKERELVATISDGGRTYYADSVKGRFTISRDNAKITVYLQMNSLKPEDTAVYYCAAPVYVPRAWFYYWGQGTQVTVSS | low polyreactivity
2 | QVQLVESGGGLVQAGGSLRLICAASGSTFNVYAMGWYIPAPGKERELVASIRTSGTRTYYADSVKGRFTISRDNAKNNVYLQMNSLKPEDTAVYYCNARYYSNLRRHGGYWGQGTQVTVSS | high polyreactivity
3 | QVQLVESGGGLVQAGGSLRLICAASGSTFQSYAMGWYRQAPGKERELVAAISARGGTTYYADSVKGRFTISRDNAKNTVYLQMNSLKPEDTAVYYCAAVDHSVYSGSPDTGESDYWGQGTQVTVSS | low polyreactivity
4 | QVQLVESGGGLVQAGGSLRLICAASGSTFSSYFMGWYRQAPRKERKLVAAITRSGVYTYYADSVKGRFTISRDNAKNTVYLQMNSLKPEDTAVYYCARRAKGAYWNEYNYWGQGTQVTVSS | high polyreactivity
5 | QVQLVESGGGLVQAGGSLRLICAASGSTFSYYTIGWYRTAPGKEMELVATISRRGASTYYADSVKGRFTISLDNAKNTVYLQMNSLKPEDTAVYYCAKSYYYGRSATRPEYDYWGQGTQVTVSS | high polyreactivity
6 | QVQLVESGGGLVQAGGSLRLICAASGSTFTGYAMGWYRQAPGKERELVAGITGSGGSTYYADSVKGRFTISRDNAKNTVYLQMNSLKPEDTAVYYCAAELYDYGDLYYSEYDYWGQGTQVTVSS | low polyreactivity
7 | QVQLVESGGGLVQAGGSLRLICAASGSTFYYNDMGWYRQAPGKERELVAAITGDGTTDYADSVKGRFTISRDNAKNTVYLQMNSLKPEDTAVYYCATTWSTYKWPDAYIIWYGYWGQGTQVTVSS | high polyreactivity
8 | QVQLVESGGGLVQAGGSLRLICAASGSTLAYNAMGWYRQAPGKERELVAGIRGSGGSTYYADSVKGRFTISRDNAKNTVYLQMNSLKPEDTAVYDCAADGLSNVRQMDYWGQGTQVTVSS | low polyreactivity
9 | QVQLVESGGGLVQAGGSLRLICAASGSTSWINAMGWYIQAPGKERELVAAISGRDGSTNYADSVKGRFTISRDNAKNTVYLLMNSLKPEDTAVYYCNANGRRFNRYGGDYWGLGTQVTVSS | high polyreactivity
10 | QVQLVESGGGLVQAGGSLRLICAASGSTYRGYAMGWYRQAPGKERELVAAISYISGGTYYADSVKGRFTISRDNAKYTVYLQMNSLKPEDTAVYYCAVGSHSRSSNSYYYWGQGTQVTVSW | low polyreactivity
11 | QVQLVESGGGLVQAGGSLRLICAASGTTFLSYAMGWYRQAQGKDRELVAAISWSGGRTYYAHSVKGRFTISRDNAKNTVYLQMNSLKPEDTAVYYCAAPHVPFTKHEYEYWGQGTQVTLSS | low polyreactivity
12 | QVQLVESGGGLVQAGGSLRLICAASGVIFTGYTMGWYREAPGKESELVAAISYRGGSTYYADSVKGRFTISRDNAKITVYFQMNRLKPEDTAVYYCNAVWSNFRLGYDHWGQGTQVTVSS | high polyreactivity
13 | QVQLVESGGGLVQAGGSLRLICAASGYIFYKNAMGWYRQAPGKERELVASITGTGGSTYYADSVKGRFTISRDNAKNTVYLQMNSLKPEDTAVYYCAADYTPWDPVSHWGQGTQVTVSS | low polyreactivity
14 | QVQLVESGGGLVQAGGSLRLICAASGYTFYFYAMGWYIQAPGKERELVAAITGGGTTSYADSVKGRFTISRDKAKNTVYLQMNSLKPEDTAVYYCASSVRNNIERYRDYYWGQGTQVTVSS | low polyreactivity
15 | QVQLVESGGGLVQAGGSLRLICAATGRIFSPNAMGWYRQAPGKERELVAAITTSGGITYYADSVKGRFTISRDNAKNTVYLQMNSLKPEDTAVYYCNTGYNGRLRDDYWGQGTQVTVSS | high polyreactivity
16 | QVQLVESGGGLVQAGGSLRLICAATGSTLVSNAMGWYRKDPGKERELVAAISTSGGSTYYADSVKGRFTISRDNAKNTVYLQMNSLKPEDTAVYYCAAPYAGWGDGGDYWGQGTQVTVSS | low polyreactivity
17 | QVQLVESGGGLVQAGGSLRLICADSGSIFVYYLMVWYRQAPGKEREFVAAISYGGGSTYYADSVKGRFTISRDNAKNTVYLQMNSLKPEDTAVYYCNTDIYSDYVCEEYEYWGQGTQVTLSS | high polyreactivity
18 | QVQLVESGGGLVQAGGSLRLICAGSGRIFYRYPMGWYRQAPGKERELVAAITVRGGSTYYADSVKGRFTISRDNAKNTVYVQRHSLKPEDTALYYCATGLGVLYDYWYEVEFDYWGQGTQVSVSS | low polyreactivity
19 | QVQLVESGGGLVQAGGSLRLICASSGRIFAGYAMGWYRQAPGKERELVAAIRDSGRTYYAVSVKGRFTISRDNAKNTVYLQMNSLKPEVTAVSYCAADAHSSYSPFRWYDYWGQGTQVTVSS | low polyreactivity
20 | QVQLVESGGGLVQAGGSLRLICDASGRIFGDNAMGWYRQAPGKEREFVATINGSGGSTYYADSVKGRFTISRDNAKNTVYLQMNSLKPEVTAVYYCFVQQNYGYDYWGQGTQVTVSS | low polyreactivity
21 | QVQLVESGGGLVQAGGSLRLICDASGRTFTDNAMGLYRQAPGKERELVAAISSSGDFYAESVKGRFTISRDNAQNTVYLQMNSLKPEDTAVYYCAARVWRYYYQSRFYYWGQGTQVTVSS | high polyreactivity
22 | QVQLVESGGGLVQAGGSLRLICDASGRTFVRYAMGWYRQAPGKERELVAAITRSASTYYADSVKGRFTISRDNAKNTVYLQMNSLKPEDTAVYYCNAGRKYWFGRAGGYDYWGQGTQVTVSS | high polyreactivity

Row | Sequence | polyreactivity (PSR sort gate)
23 | QVQLVESGGGLVQAGGSLRLICDASGSIFGDYVMGWYSPAPGKERELVAAITSATSTYYADSVKGRFTISRDNAKNTVYLQMNSLKPEDTAVYYCKADATYPLWPNIWYDYDYWGQGTQVTVSS | low polyreactivity
24 | QVQLVESGGGLVQAGGSLRLICSASGSIIEHYAMGWYRQAPGKERELVAAISWCGASTYYADSVKGRFTISRDNAKNTVYLQWYSLKPEDTAVYYCAAVFYGGGKRYYYWGQGTQVTVSS | high polyreactivity
25 | QVQLVESGGGLVQAGGSLRLICSASGTTFPVYVMGRYRHAPGKERELVAAISRSGTSTYYADSVKGRFTISRDNAKNTVYLQMNSLKPEDTAVYYCAAQLYGHGEDYWGQGTQVTVSS | high polyreactivity
26 | QVQLVESGGGLVQAGGSLRLIFAASGFIFETYAMGWYRQAPGKERELVAAISRGASTYYADSVKGRFTISRDNAKNTVYLQMNSLKPEDTAVYDCAAKRLSWHRYGYWGQGTQVTVSS | low polyreactivity
27 | QVQLVESGGGLVQAGGSLRLISAASGIIFWGNAMGWYRQPPGNERELVATITGRGGSTYYADSVKGRFTISRDYAKNTVYLQMNSLKPEDTAVYYCAASGGRPILFYDVWGGIVRHEYWGQGTQVTVSS | low polyreactivity
28 | QVQLVESGGGLVQAGGSLRLISAASGINFTGYAMGWYRQAPGKERELVAAISYSAASTYYADSVKGRFTISRDTAKNTVYLQMNSLKPEDTAVYYCAATAPSRSYPFRYYYWGQGTQVTVSS | high polyreactivity
29 | QVQLVESGGGLVQAGGSLRLISAASGRTFYSNAMGWYRQAPGKERELVAAITKSGGRTYYADSVKGRFTISRDNAKNTDYLQMNSLIPEDTAVYYCKALVAAYYGYDYWGQGTQVTVSS | high polyreactivity
30 | QVQLVESGGGLVQAGGSLRLISAASGSIFPAYDMGLYRQAPGKEREFLPAIERGGSTYYADSVKGRYTISRDNAKNTVYLPMNSLKPVDTAVFYCATDCPEYPNYISSAGFDYWGQGTQVNVSS | low polyreactivity
31 | QVQLVESGGGLVQAGGSLRLISAASGSTFRHYALGWNRQAPGKERELVAAISSTGGSTYYADSVKGRFTISRDNAKNTVYLQMNSLKPEDTAVFYCAARRLYWGQGTQVTVSS | high polyreactivity
32 | QVQLVESGGGLVQAGGSLRLIWAASGFTFWLNAMGWYRQAPGKERELVAAINWSGGSTYYADSVKGRFTISRDNAKNTVYLLMNILKPEDTAVYYCNRRGQYTFWPIHEYWGQGTQVTVSS | high polyreactivity
33 | QVQLVESGGGLVQAGGSLRLKCAASGSTFRPYAMGWYRQAPGKERELVARITGSGDSTYYADSVKGRFTISRDNAKITVYLQINSLKPEDNAVYYCAREFDYSLSGFDYWGQGTQVTVSS | low polyreactivity
34 | QVQLVESGGGLVQAGGSLRLLCADSGFTFEYYAMGWYRQAPGKERELVAAITSGGSTNYADSVKGRFTISRDNAKNTVYVQMNSLKPEDTAVYYCAAGYWYRYAALRYDHWGQGTQVTVSS | low polyreactivity
35 | QVQLVESGGGLVQAGGSLRLRCAACGSIFTQYVMGWYRKAPGKERELVAAITWSGGNTYYADSVKGRFTISRDNAKNTVYLQMNSLKPEDTAVYYCAAYKPYSKYNDWGQGTQVTVSS | high polyreactivity
36 | QVQLVESGGGLVQAGGSLRLRCAASGFTFRLYAMGGDRQAPGKERELVATITQRGGRTYYADSVKGRFTISRDNAKNTVYLQMNSLKPEDTAVYYCAATWSLTTGTKFDYWGQGTQVTVSS | high polyreactivity
37 | QVQLVESGGGLVQAGGSLRLRCAASGFTFYLYAMGWYRQAPGKERELVAAITWSGGRTYYADSVKGRFTNSRDNAKNTVYLQMNSLKPEYTAVYYCAAVVRKQLSAPSDYWGQGTQVTVSS | high polyreactivity
38 | QVQLVESGGGLVQAGGSLRLRCAASGGTFYYYAMGWYRQAPGKERELVAAISTSGTSTYYADSVKGRFTISRDNAKNTVYLQMNSLKPEDTAVYDCAARGLRVSSRGYYWGQGTQVTVSS | high polyreactivity
39 | QVQLVESGGGLVQAGGSLRLRCAASGHIFGRYAMGWYRQAPGKERELVAAFTSGGTTYYADSVKGRFTISRDNAKNTVYLQMNSLKPEDTAVYYCAAKFQLKRYSSPFIWYDSWGQGTQVTVSS | high polyreactivity
40 | QVQLVESGGGLVQAGGSLRLRCAASGIIFGTNAMGWYRQAPGKERELVAGITSSGDSTYYADSVKGRFTISRDNAKNTVYLQMNSLKAEDTAVYYCARDIRTREFDSWGQGTQVTVSS | low polyreactivity
41 | QVQLVESGGGLVQAGGSLRLRCAASGISFRRNVMGWCRQAPGKERELVARISRAGSTKYADSVKGRFTISRDTAKNTVYLQMTSLKPEDTAVYYCNKVTRRNGQPYDYWGQGTQVTVSS | high polyreactivity
42 | QVQLVESGGGLVQAGGSLRLRCAASGMGWYRQAPGKEWEKVATITWSDGITYADSVKGRFTISRDNAKNTVYLQMNSLKPEDTAVYYCNADWDQTGTVFYSFGLREMDSWGQCTQVTVSS | low polyreactivity
43 | QVQLVESGGGLVQAGGSLRLRCAASGRIFPWYAMGWYRHAPGGEREFVAVISRSGGSTYYADSVKGRFTISRDNAKNTVYLQMNSLKPEDTAVYYCASDGKFEYDYWGQGTQVTVSS | low polyreactivity
